Substrate: CNC(=O)Oc1ccc2[nH]cc(CCNC(C)=O)c2c1
Experiment: MTase-Glo bioluminescence assay
Type: biochemical, Streptomyces griseofuscus
Settings: […] SAM; optimized conditions ([…] °C, pH […] KPi stated as optimum)

B1: PsmD (Streptomyces griseofuscus) (protein)
chain: MMQGQPHQDAGMPEPYAATADVYDRLVDYAIAEWGECPRPQMADFVEQAWAARGHRVRRVLELCCGTGLMTEQLVRRGYEVTAVDRSETMLALAKQRVGGAADFHQIELPAPLPDGADAVVCTAAAFNYQASARSLGETLRAVATVLPAGATFVFDIETAALLKGHWGNRVWAADEGDLAFIWDFTSEPDTTYCDVHYTQFTRHEAGADAYTGVREVHRLYAFDHDTVRAQARAAGFAQAEVFDNYTERPATDTTRYETWVLTRDER
- Km: 11.3 µM
